In PMC6555848 (2019):

Tests used:
His-tagged ABL1 kinase [1] = target: T1, His-tagged ABL1 kinase (UniProt P00519 1-1130); assay: SPR; two-state model
His-tagged ABL1 kinase [2] = target: T1, His-tagged ABL1 kinase; assay: SPR; two-state model, kd1

T1 sequence (P00519 whole entry): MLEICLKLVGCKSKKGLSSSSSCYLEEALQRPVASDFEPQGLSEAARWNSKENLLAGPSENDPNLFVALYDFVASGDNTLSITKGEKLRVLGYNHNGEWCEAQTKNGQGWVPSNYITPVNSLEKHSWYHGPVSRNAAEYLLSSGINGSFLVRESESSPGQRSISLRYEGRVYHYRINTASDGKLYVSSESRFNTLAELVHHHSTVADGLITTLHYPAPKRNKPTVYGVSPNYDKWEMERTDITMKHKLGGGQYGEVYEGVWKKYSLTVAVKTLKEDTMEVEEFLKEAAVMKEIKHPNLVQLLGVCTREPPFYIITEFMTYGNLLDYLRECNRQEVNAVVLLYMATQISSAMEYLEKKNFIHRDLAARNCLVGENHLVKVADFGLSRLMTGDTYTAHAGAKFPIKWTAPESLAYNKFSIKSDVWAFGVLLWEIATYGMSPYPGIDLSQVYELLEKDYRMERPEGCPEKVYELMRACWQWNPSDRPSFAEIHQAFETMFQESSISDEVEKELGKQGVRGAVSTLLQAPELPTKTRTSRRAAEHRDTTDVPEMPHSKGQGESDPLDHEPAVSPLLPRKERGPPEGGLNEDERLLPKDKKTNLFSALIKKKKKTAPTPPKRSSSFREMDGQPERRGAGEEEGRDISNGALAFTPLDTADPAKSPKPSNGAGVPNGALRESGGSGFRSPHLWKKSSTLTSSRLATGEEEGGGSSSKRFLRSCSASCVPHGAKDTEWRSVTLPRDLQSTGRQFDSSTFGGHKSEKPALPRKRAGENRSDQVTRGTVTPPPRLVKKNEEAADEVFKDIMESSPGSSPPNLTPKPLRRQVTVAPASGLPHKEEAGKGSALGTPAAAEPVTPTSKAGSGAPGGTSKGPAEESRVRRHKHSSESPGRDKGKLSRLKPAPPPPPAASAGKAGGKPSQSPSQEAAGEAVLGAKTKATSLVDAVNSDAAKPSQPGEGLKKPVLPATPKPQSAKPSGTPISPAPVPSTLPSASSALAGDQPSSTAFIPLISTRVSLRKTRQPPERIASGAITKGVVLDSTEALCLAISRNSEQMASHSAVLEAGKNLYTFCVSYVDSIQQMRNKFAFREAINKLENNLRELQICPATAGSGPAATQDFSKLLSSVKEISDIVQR

Kd (His-tagged ABL1 kinase [1]): 0.28 µM | koff (His-tagged ABL1 kinase [2]): 93.9 s⁻¹
B1: full-length human STAT5B (M1-S787) (natural protein)
chain: MAVWIQAQQLQGEALHQMQALYGQHFPIEVRHYLSQWIESQAWDSVDLDNPQENIKATQLLEGLVQELQKKAEHQVGEDGFLLKIKLGHYATQLQNTYDRCPMELVRCIRHILYNEQRLVREANNGSSPAGSLADAMSQKHLQINQTFEELRLVTQDTENELKKLQQTQEYFIIQYQESLRIQAQFGPLAQLSPQERLSRETALQQKQVSLEAWLQREAQTLQQYRVELAEKHQKTLQLLRKQQTIILDDELIQWKRRQQLAGNGGPPEGSLDVLQSWCEKLAEIIWQNRQQIRRAEHLCQQLPIPGPVEEMLAEVNATITDIISALVTSTFIIEKQPPQVLKTQTKFAATVRLLVGGKLNVHMNPPQVKATIISEQQAKSLLKNENTRNDYSGEILNNCCVMEYHQATGTLSAHFRNMSLKRIKRSDRRGAESVTEEKFTILFESQFSVGGNELVFQVKTLSLPVVVIVHGSQDNNATATVLWDNAFAEPGRVPFAVPDKVLWPQLCEALNMKFKAEVQSNRGLTKENLVFLAQKLFNNSSSHLEDYSGLSVSWSQFNRENLPGRNYTFWQWFDGVMEVLKKHLKPHWNDGAILGFVNKQQAHDLLINKPDGTFLLRFSDSEIGGITIAWKFDSQERMFWNLMPFTTRDFSIRSLADRLGDLNYLIYVFPDRPKDEVYSKYYTPVPCESATAKAVDGYVKPQIKQVVPEFVNASADAGGGSATYMDQAPSPAVCPQAHYNMYPQNPDSVLDTDGDFDLEDTMDVARRVEELLGRPMDSQWIPHAQS
